Measured values published in the nanobody polyreactivity screen of Harvey et al. (2022).

Test: yeast display, Sf9 membrane polyspecificity reagent, FACS + sequencing; frameworks hold sequencing errors
Summary of the method: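 In a synthetic yeast display library (Saccharomyces cerevisiae BJ5465), nanobody expression was induced with galactose for 36–48 hours. FACS gates were set low and high (top ~1%) using anti-HA fluorescence for expression and streptavidin fluorescence for binding of the Sf9 membrane reagent. Each polyreactivity label is drawn from the gate of origin.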

| Sequence | polyreactivity (PSR sort gate) |
| --- | --- |
| QVQLVESGGGLVQAGGSLRLSCAASGIIFPRYAMGWYRQEPGKERELVAAITRRGGRTYYADSVKGRFTISRDNAKNTVYLQMNSLKPEDTAVYYCAARKVNRGSGGYDSWGQGTQVTVSS | high polyreactivity |
| QVQLVESGGGLVQAGGSLRLSCAASGRTFTTNAMGWYSQARGKERELVAAINSGGSTNYADSVKGRFTISRDNAKNTVYLQMNRLKPEDTAVYYCAKRQRDYSSVFEVDYWGQGTQVTVSS | low polyreactivity |
| QVQLVESGGGLVQAGGSLRLSCAAYGRIFFRYAMGWYRQAPGKERELVATISSSGSTYYADSVKGRFTISRDNAKNTVYLQMNSLIPEDTAVYYCAATWTTRGLRHFVYNDYDYWGQGTQVTVSS | high polyreactivity |
| QVQLVESGGGLVQAGGSLRLSCAASGIIFGYYAMGWYRQAPGKERELVAAITWSGGSTYYADSVKGRFTISRDNAKNTVYLQMNSLKPEDSAVYYCNADDDGRVSSTIVEYWGQGTQVTVSS | low polyreactivity |
| QVQLVESGGGLVQAGGSHRLSCAASGLTFRRNAMGWYRQAPGKERELVAAISGSGGSTYYADSVKGRFTISRDNAKNTVYLQMNSLKPEDTAVYYCAADDGIVAYGYWGQGTQVTVSS | high polyreactivity |
| QVQLEESGGGLVQAGGSLRLSCAASGIIFATYAMGWYTQAPGKDRELVAAISSGGRTYYADSVKGRFTISRDNAKNTVYFQMNSLKPEDTAVYYCAAKSGGRSSLYNYWGQGTQVTVSS | high polyreactivity |
| QVQLVESGGGLVQAGGSLRLSCAASGRTFYNYAMGWYRQAPGKERELVAAIDWGSDSTYYADSVKGRFTISRDNAKNTVYLQMNSLKPEDTAVYYCAAYLVSVNSRTYDYWGQGTQVTVSS | low polyreactivity |
| QVQLVESGGGLVQAGGSLRLSCAASGRNFGTNAMGWYRQAPGKERELVASIDLSADSTYYADSVKGRFTISRDNAKNTVYLQMNSLKPEDTAVYYCNKDGYPWPPNLDYWGQGTQVTVSS | low polyreactivity |
| QVQLVESGGGIVQAGGSLRLSCAASGRTLISYAMGWYRQAPGKERELVAAISWGGSSTYYADSVKWRFTISRDNAKNTVYLQRNSLKPEDTAVYYCNTVYYYWGKWRGTYDYWGLGTQVTVSS | high polyreactivity |
| QVQLVESGGGLVQAGGSLRLSCAASGRIFRDYAMGWYRQAPVKERELVAAITRSGDTTYYADSVKGRFTISRDNAKNTVYLQMNSLKPEDTAVYYCAARYVSRYYVYRGFEYWGQGTQVTVSS | high polyreactivity |
| QVQLVESGGGLVQAGGSLRLSCAASGSIFGINTMGWYRHAPGKEREFVASIRFNDGDTYYADSVKGRFTISRDTAKNTVYLKMNSLKPEDTAVYYCNVQTYVELRLDYWGQGTQVTVSS | low polyreactivity |
| QVQLVESGGGLVQAGGSLRLSCAASGRILYSYAMGWYRQAPGKERELVADITQRGGTTDYADSVKGRFTISRDNAKTTVYVQMNSLKPEDTAVYYCNANSYRSYGGRGGVEYDYWGEGTQVTVSS | low polyreactivity |
| QVQLVESGGGLVQAGGSLRLSCAASGSTFGRNAMGWYRQAPGKERELVAAISWRSTRTYYADSVKGRFTISRDNAKNTVYLQMNSLKPEDTAVYYCAAAWRIWWYHRGEFDYWGQGTQVTVSS | high polyreactivity |
| QVQLVESGGGLVQAGGSLRLSCAASGFTFYGYAMGWYRQAPGKERELVAAISTRGSRTYYADSVKGRFTISRDNSKNTVYLQMNSLKPEDTAVYYCAARKKHSGYGRGNYWGQGTQVTVSS | high polyreactivity |
| QVQLVESGGGLVQAGGSLRLSCAAYGSFFPYNAMGWYRQAPGKERELVAGITRRGGSTYYADSVKGRFTISRDNAKNTVYLQINSLKPVDTAVYYCGTEVTYPWHVDEGDYWGQGTQVTVSS | low polyreactivity |
| QVQLVESGGGLVQAGGSLRLICAASVSTFVRNAMGLYRQAPGKERELVAAISRSGGRTYYADSVKGRFTISRDNAKNTVYLQMNSLKPEDTSVYYCAADGKSVYDYWGQGTQVTVSS | high polyreactivity |
| QVQLVESGGGLVQAGGSLRLSSAASGSILWQYAMGWYRQAPGTERELVAAMTYSGGSTHYADSVKGRFTISRDNAKNTVYLQMNSLKPEDTAVYYCAAGYWYRYAALRYDHWGQGTQVTVSS | low polyreactivity |
| QVQLVESGRGLVQAGGSLRLSCAASGRIFYYNDMGWYRQAPGNERELFAAITWTDDGTYYADSVKGRFTISRDNAKNTVYLQMNSLKPVDTAVYYCAKDYNRTVEDWAKVNGFDFWGQVTQVTVSS | low polyreactivity |
| QVQLVESGGGLVQAGGSLRLSCAASGSTFGAYVMGWSRQAPGKERELVAGITYSGGTTYYAYSVKGRFTISRDNSKNTVYLQMNILKPEDTAVYYCNVSQHYSRRLKKWQMDYWGQGTQVTVSS | high polyreactivity |
| QVQRVESGGGLVQAGGSLRLSCAASGRTVGYYAMGWYRQAPGKERELLAAITRTGGSTHYADSVKGRFTISRANAKNTVYIQMNSLKPEDTAVYYCARDYRYTIPYDYWGQGTQVTVSS | low polyreactivity |
| QFQLVESGGGLVQAGGSLRLSSAASGSTFYYNAMGWYRQAPGKERELVAVITSGVSTYYADSVKGRFTISRDNAKNTVYLQMNSLKPVDTAVYYCAADLYRPYEYQLDYWGHGTQVTVSS | low polyreactivity |
| QVQLVESGGGLVQAGGSLRLSCSASGSIFLYYTMGWYRQEPGKERELVAAITWSGASTYYADSVKGRFTISRDNGKITVYLQMNSLKPEDTAVYYCATRYRYRYCGQGTQVTVSS | high polyreactivity |

| Sequence | polyreactivity (PSR sort gate) |
| --- | --- |
| QVQLVESGGGLVQAGGSLRLSCAASGSIFSYYAMGWSRQEHGKERELVAAITRSGSTNYADSVKGRFTISRDNAKNTVYLQMNSLKPEDTAVYYCARRHYSSRVIYVSSKGGYWGQGTQVTVSS | high polyreactivity |
| QVQLVESGGGLVQAGGSLRLICDASGIIFYDYAMGWYRQAPGKERELVAAITSSGGSTYYADSVKGRFTISRDNAKNTVYLQMNSLKPEDTAVYYCAAATRGSGRRYDYWGQGTQVTLSS | high polyreactivity |
| QVQLQDSGGGLVQAGGSLRLNCATSGTIFVLWYMGWYRQAPGKERELVATINDGANTYYADSVKGRFTINRDNAYSTVYLKMNSLKPEDTAVYYCAVYAIIVWGLGYWGQGTQVTVSS | high polyreactivity |
| QVQLVESGGGLVQAGGSLRLSCAASGSIFLVYAMGWYRQAPGKERELVAASDWSDTDTYYADSVKGRFTISRDNAKNTFYLQMNSLKPEDTAVYYCAADHVGVDFEYWGQGTQVTVSS | low polyreactivity |
| QVQLVESGGRLVKAGGSLRLSCPASGRIFADYAMGWYRQAPGKESELVADIRRSGGRTYYADSVKGRFTISRDNAKNTVYIQMNSLKPEDTAVYYCATDYGSWGDYSGNYDYWGQGTQVTVSS | low polyreactivity |
| QVQLVESGGGLVQAGGSLRLSCAASGIIFPYYAMGLYRQAPGKERELVAAITSRTGSTYYADSVKGRFTISRDNAKNTVYLQMNSLNTEYTAVYYCIKEREPYGYWSFDYWGQGTQVTVSS | low polyreactivity |
| QVQLVESGGGLVQAGGSLRLSCAASGSTFNSYTMGWYRKAPGKERELVAAITLSGGRTYYADSVKGRFTISRDNAKNTVYLQMNSLKPEDTAVYYCAAYCRASWERDYWGQGTQVTVTS | low polyreactivity |
| QDQLVESGGGLVQAGGSLRLSCAASGYTFAYYAMGWYRQAPGKERELVARITSGGRTYYADSVKGRFTISRDNAKNTVYLQMNSLKPEDTAVYYCNAAWPFRYRRYDYWGQGTQVSVSS | high polyreactivity |
| QVQLVESGGGLVHAGGSLRLSCASSGFTYSQYVMGWYRQAPGKERELVASITGNGGSTRYADSVKGRFTISRDNANKTVYLQMNCLKPEDTAVYYCDTRVKFSTSYWLYYWGQGTQVTVSS | high polyreactivity |
| QVQLVESGGGLVQAGGSLRLSCAASGSTFINYARGWYSQAPGKERELVAVITSDDGSTYDADSVKGRFTISRDNAKNTVYLQMNSLKPEDTAVYYCAAYYYDQRYRPGPWYDYWGQGTQVTVSS | low polyreactivity |
| QVQLVESGGGLVQAGGSLRLSCAASGRTFGSYAMGWYRQAPGKERELVAAITWSGTGTYYADSVKGRFTISRDNAKNTVYLQMNSLKPEDTAVYYCAVYTIGYLAWYQKFDYWGQGTQVTVSS | high polyreactivity |
| QVQLVESGGGLVQAGASLRLSCAASGFTFGVYAMVWYRQAPGTVIELVAAISSSGGSTYYADSVKGRFTISRDNAKNTVYLQMNSLKPEDTAVYYCAKDTNSYYKYGYWGQGTQVTVSS | high polyreactivity |
| QVQLVESGGGLVQAGGSLRLSCAASGRPFVSYALGWYRQAPGKERELVAVITGGTGNTYYADSVKGRFTISRDNAKNTVYLQMNSLIPEDTAVYYCNARGGYYKFRYPLYYWGQVTQVTVSS | high polyreactivity |
| QVQLVESGGGLVQAGGSLRLSCAASGRTFSVNAMGWYRPAPGKERELVAAISSGGGTNYADSVKGRFTISRDNAKNTVYLQMNSLKPEDTAVYYCAARTFGYPSHRQEMEYWGQGTQVTVSS | low polyreactivity |
| QVQLVESGGGLVQAGGSLRLSCAASGFTFGSNAMGWYRQAPGKERELVAAISSRGGRTYYADSVKGRFTISRDNAKNTVYLQMNSLKPEDTAVYYCAKYRSYRGPYNYWGQGTQVTVSS | high polyreactivity |
| QVQLVESGGGLVQAGGSLRLSCAASGSILGHYAMGWYRQAPGKERELVAAISWSGGSTYYADSVKGRFTISRDNAKNTVYLQMNSLKPEDTAVYYCNAYLSPKQPLSPPDPTFEGGYWGQGTQVTVSS | low polyreactivity |
| QVQLVESGGGLVQAGGSLRLSCAASGFIFTVNAMGWYRQAPGKDRELVAAITSGGNTYYADSVKGRFTISRDNAKNTVYLQMNSLKPEDTAVYYCNAVFYTWSPYGTTVRSYGYWGQGTQVTVSS | high polyreactivity |
| QVQLVESGGGLVQAGGSLRLSCAASGSILEGNAMGWYRQAPGKERELVASISGDGSTNYADSVKGRFTISRDNAKNTVYLQMNSLKPEDTAVYYCAARYGRIHWKANWPEYGYWGQGTQVTVSS | low polyreactivity |
| QVQLQESVGGLVQACGSQRLICAASGYIFSHQYMGCYRQAPGKERELVASMSPGATTNYADRVKGRFTISRDNAKNTVYLQMNSLKTEDTAVYYYAVYQILDRRLSYWGQGTQVTVSC | high polyreactivity |
| QVQLVESGRGIVQAGGSLRLSCAASGSTFAVNAMGWYRQAPGKERELVAAISTGGSTNYADSVKGRFTISRDNEKNTVFLQMNSLKPEDTAVYYCAAEHPVTYPTSKFDYWGQGTQVTVSS | low polyreactivity |
| QVQLVESGGGLVQAGGSLRLSCAASGRIFYYNAIGWYRQAPGKERELVATITRAGGTYYADSVKGRFTISRDNAKNTVYLQMNSLKPEDTAVYYCAKRHPIVDDYKGDYWGQGTQVTVSS | low polyreactivity |
